Changes are numbered by the printed parent chain. Names may count otherwise.
B1: NavMs sodium channel pore protein (wild-type pore of NavMs from M. marinus MC-1 with its complete C-terminal domain) (domain or fragment, Magnetococcus marinus MC-1)
chain: GVGSVAALLTVVFYIAAVMATNLYGATFPEWFGDLSKSLYTLFQVMTLESWSMGIVRPVMNVHPNAWVFFIPFIMLTTFTVLNLFIGIIVDAMAITKEQEEEAKTGHHQEPISQTLLHLGDRLDRIEKQLAQNNELLQRQQPQKK
B2: NavMs sodium channel pore protein, E178D selectivity filter mutant (domain or fragment, Magnetococcus marinus MC-1)
chain: B1 chain with E49D

Biological target: the molecule itself
Test: crystal structure; NavMs pore crystals grown in the presence of sodium ions; open conformation; four identical chains arranged in two half-tetramers, with the tetramers completed by crystal symmetry

| Protein | stoichiometry N |
| --- | --- |
| B1 | 4 |
| B2 | 4 |
